The values below come from US20150140002A1, “USE OF A PCSK9 INHIBITOR TO TREAT […]” (Sanofi, priority 2013, published 2015).

Data set [1] deals with patient population with non-familial hypercholesterolemia or with heterozygous familial hypercholesterolemia. Kind of data set: Phase 2 studies / earlier clinical data of mAb316P. The format is in vivo, human. An excerpt:
The efficacy on LDL-C lowering was associated with consistent results in total-C, ApoB, non-HDL-C and ApoB/ApoA-1 ratio and a positive trend for HDL-C, TG and Lp(a).

The test system of data set [2] is patients with primary hypercholesterolemia (heFH and non-FH) who are intolerant to statins. The experiment in a line: Example 3: safety (TEAEs, skeletal muscle-related events). The settings on record: in vivo.
Where [3] appears, read: clinical data available at commencement of Example 3 study.

As to “mAb316P: human anti-PCSK9 antibody; heavy chain SEQ ID NO:5, light chain SEQ ID NO:9; HCVR SEQ ID NO:1, LCVR SEQ ID NO:6”, in data set [1] (setting [3]), the LDL-C lowering effect result is recorded as “significant LDL-C lowering effect” and the tolerability entry is “generally well-tolerated”. The “serum total concentrations of mAb316P during the 8-week follow-up period” value in data set [1] (preliminary PK data from Phase 2 studies) is “still detectable, but at very low levels”. For the same substance, the “patients positively adjudicated for non-fatal MI” value in data set [2] was “one (0.8%) patient (%)”.
